From the RNAGym collection of RNA variant scans (doi:10.1073/pnas.2313332121)
This sample holds only a part of the variants without activity.

B1: TPR 5TU (parent)
chain: GGAUCUUCUCGAUCUAACAAAAAAGACAAAUCUGCCACAAAGCUUGAGAGCAUCUUCGGAUGCAGAGGCGGCAGCCUUCGGUGGCGCGAUAGCGCCAACGUUCUCAACUAUGACACGCAAAACGCGUGCUCCGUUGAAUGGAGUUUAUCAUG

Variants of: B1
Experiment: polymerase ribozyme fitness, log enrichment relative to wild type (log ratio); higher = more active; in vitro selection for triplet polymerase activity
How it was run: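 Input and output libraries were sequenced on Illumina after a single in vitro selection round, run in triplicate on PCR-built, transcribed mutant libraries of each subunit of a heterodimeric triplet polymerase ribozyme. Selection annealed libraries to a biotinylated primer, the partner subunit and triplets, incubated them frozen at −7 °C, then gel-excised extended constructs for streptavidin-bead capture and RT-PCR. Genotypes with ≥10 input reads and ≥1 read per output were kept. Fitness is the logarithm, taken in base 2, of genotype enrichment divided by wild-type enrichment, using inverse-variance-weighted replicate averages.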

Compared with GGAUCUUCUCGAUCUAACAAAAAAGACAAAUCUGCCACAAAGCUUGAGAGCAUCUUCGGAUGCAGAGGCGGCAGCCUUUGGUGGCGCGAUAGCGCCAACGUUCUCAAGGAUGACACGCAAAACGCGUGCUCCGUUGAAGGGAGUCUAUCAUG, GGAUCUUCUCGAUCUAACAAAAAAGACAAAUCUGACACAAAGCUUGAGAGCAUCUUCGGAUGCAGAGGCGGCAGCCUUCGGUGGCGCGAUAGCGACAACGUUCUCAGCUAUGACACGCAAAACGCGUGCUCCGUUGAAUGGAUUUUAUCAUG is higher in “polymerase ribozyme fitness (log ratio)” value: no more than -4.2 for the first, -3.95 for the second.

Compared with GGAUCUUCUCGAUCUAACAAAAAAGACAAAUCUGCCACAAAGCUUGAGAGCAUCUUCGGAUGCAGAGGCGGCAGCCUUCGUUGACGCGAUAGCGCCAACGUUCUCAACUAUGACACGCAAAACGCGUGCUCCGUUGAAUGGAGUUUAUCAUG, GGAUCUUCUCGUUCUAACAAAAAAGACUAAUCUGCCACAAAGCGUGAGAGCAUCUUCGGAUGCAGAGGCGGCAGCCUUCGGUGGCGCGAUAGAGCCAACGUACUCAACUAUGACACGCAAAACGCGUGCUCCGUUGAAUGGAGUUUAUCAUG is lower in “polymerase ribozyme fitness (log ratio)” value: -1.28 for the first, no more than -4.2 for the second.

Compared with GGAUCUUCUCGAUCUAACUAAAAAGACAAAUCUGCCACAAAGCUUGAGAGCAUCUUCGGAUGCAGAGGCGGCAGCCUUCGGUGGCGCGUUAGCGCCAACGUUCUCAACUAUGACACGCAAAACGCGUGCUCCGUUUAAUGGAGUUUAUCAUG, GGAUCUUCUCGAUCUAAUAAAAAAGACAAAUCUGCCACCAAGCUUGAGAGCAUCUUUGGAUGCAGAGGCGGCAGCCUUCGGUAGCGCGAUAGCGUCAACGUUCUCAACUAUGACACGCAAAACGCGUGCUCCGUUGAAUGGAGUUUACAAUG is lower in “polymerase ribozyme fitness (log ratio)” value: -3.55 for the first, no more than -4.2 for the second.

Compared with GGAUCUGCUCGAUCUAACAAAAAAGACAAAUCUGCCACAAAGCUUGAGAGCAUCUUCGGAUGCAGAGGCGGCAGCCUUCGGUGGAGCGAUAGCGCCAACGUUCUCAACUAUGACACGCAAAACGCGUGCUCCGUUGAAUGGAGUUUAUCAUG, GGAUCAUCUCGAUCUAACAAAAAAGACAAAUCUGCCACAAAGCUUGAGAGCAUCUUCGGAUGCAGAGGCGGCAGCCUUCGCUGGCGCGAUAGCUCCAACGUUCUCAACUAUGACACGCAAAACGUGUGCUCCGUUGAAUGGAGUUUAUCAUG is higher in “polymerase ribozyme fitness (log ratio)” value: -3.43 for the first, -2.57 for the second.

Compared with GGAUCUUCUCGAUCUAACAAAAAAGACAAAUCUGCCACAAAGCUUGAGUGCAUCUUCGGAUGCAGAGGCGGCAGCCUUCGGUGGGGCGAUAGCGCCAACGUUCUCAACUAUGACACGCAAAACGCGUGCUCCGUUGAAUGGAGUUUAUCAUG, GGAUCUUCGCGAUCUAACAAAAAAGACACAUCUGCCACAAAGCUUGAGAGCAUCUUCGAAUGCAGAGGCGGCAGCUUUCGGUGGCGGGAUAGCGCCAACGUUCUCAACUAUGACACGCACAACGCGUGCUCCGUUGAAUGGAGUUUAUCAUG is lower in “polymerase ribozyme fitness (log ratio)” value: -2.96 for the first, no more than -4.2 for the second.

Going from GGAUCUUCUCGAUCUAACAAUAAAGACAAAUCUGCCACAAAGCUUGAAAGCAUCAUCGGAUGCAGAGGCGGCAGUCUUCGGUCGCGCGGUAGCGCCAUCGUUCUUAACUAUGACACACAAAACGCGUGCUCCGUUGAAUGGAGCUUAUCAUG to GGAUCUUCUCGAUCUAACUAAAAAGACAAAUCUGCCACAAAGCUUGAGAGCAUCUUCGUAUGCAGAGGCGGCAGCCUUCGGUGGCACGAUAGCGCCAACGUUCUCAACUAUGACACGCAAAACGCGUGCUCCGUUAAAUGGAGUUUAUCAUG, the “polymerase ribozyme fitness (log ratio)” value rises from no more than -4.2 to -2.01.

Compared with GGAUCUUCUCGAUCUAACAAAACAGAGAAAUCUGCCACAAAGCUUGAGAGCAUCUUCGGGUGCAGAGGCGGCAGCCUUCGGUGGCGCGAUAGCGCCCACGUUCUCAACUAUGACACGCAAAACUCGUGCUCCGUUGAAUGGAGUUUAUCAUG, GGAUCUUCUCGAUCUAACCAAAAUGACAAAUCUGCCACAAAGCUUGAGAGCAUCUUCGGAUGCAGAGGCGGCAGCCUUCGGUGGCGCGAUAGUGCCAACGUUCUCAACUAUGACACGCAAAACGCGUGCUCCGUCGAAUGGAGUUUAUCAUG is higher in “polymerase ribozyme fitness (log ratio)” value: no more than -4.2 for the first, -2.84 for the second.

First: GGAUCUUCUCGAUCUAACAAACAAGACAAAUCUCCCACAAAGCUUGAGAGCAUCGUCGGAUGCAGAGGCGGCAGCCUUCGGUGGCGCGAUCUCGCCAACGUUCUCAACUAUGACACGCAAAACGCGUGCUCCGUUGAAUGGAGUUUAUCAUG
Second: GGAUCUUUUCGAUCUACCAAAAAAGACGAAUCUGUCACAAAGCUUGAGAGCAUCUUCGGAUGCAGAGGCGGCAGCAUUCGGUGGCGCGAUAGCGCUAACGUUCUCAACUAUGACACGCAAAACGCGUGCUCCGUUGAAUGGAGGUUAUCAUG
The “polymerase ribozyme fitness (log ratio)” value of the first is lower: no more than -4.2 for the first, -3.75 for the second.

GGAUCUUCUCGAUCUAACAAAAAAGACAAAUCUGCCACAAAGCUUGAGAGCAUCUUCGGAUGCAGAGGCGGCAGCCUUCGGUGGCUCUAUAGCUCCAACGUUCUCAACUAUGACACGCAAAACGCGUGCUCCGUUGAAUGGAGUUUAUCUUG and GGAUCUUCUGGAUCUAACAAAAAAGACAAAUCUGCCACAAAGCUUGAGAGUAUCUUCGGAUGCAGAGGCGGCAGCCUUCGGUGGCGCGAUAACGCCAACGUUCUCAACUAUGACACGCAAAACCCGUGCUCCGUUGAAUGGAGUUUAUCAUG cannot be ordered by “polymerase ribozyme fitness (log ratio)” value: no more than -4.2 for the first, no more than -4.2 for the second.

For GGAUCUUCUCGAUCUAACAAAAAAGACAAAUCUGCCACUAAGCUUGAGAGCACCUUCGGAUGCAGAGGCGGCAGCCUUCGGUGGCGCGAUAGCGCCAACGUUCUCAAGUAUGACACGCAAAACGCGUGCUCCGUUGAAUGGAGUUUAUUAUG, the “polymerase ribozyme fitness (log ratio)” value was no more than -4.2.
